B1: GLTSCR2 (parent)
chain: LARRRRRRQARREAEADKPRRLGR

Variants of: B1
Assay: protein stability index of a GFP-peptide fusion (GPS, HEK-293T) (PSI 1-6); higher = more stable
Conditions: c terminus: a fixed tail appended
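Further: lentivirally expressed fusions sorted by FACS into six bins by GFP to DsRed ratio, PSI derived from sequencing read proportions per bin multiplied by bin number.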

Protein stability index, by site and new letter:
K18: M 5.14, G 4.91, T 4.29, Y 4.85, V 5.01, C 5.07, A 4.89, R 5.02, S 4.74, F 5.1, H 4.98, Q 4.97
R6: E 4.03, A 5.21, W 4.74, D 4.96, M 4.27, I 3.98, V 3.6
R5: Q 4.33, M 4.36, P 5.1, S 4.42, L 3.81, N 5.32
E15: G 4.43, F 4.36, N 5.4
P19: E 4.64, S 4.16, I 3.81, C 4.29, Q 4.19, K 4.61, Y 4.26
A16: M 4.97, S 3.77, R 3.96, K 4.32, W 3.73, L 3.29, C 4.48, I 4.22
D17: Q 4.53, Y 4.88, P 4.33, L 4.52
R11: K 4.52, L 5.4, Q 4.26, G 3.7
A10: P 5.19, S 4.66, T 4.21, M 5.21, C 5.01, W 4.73, F 4.47, H 5.1, E 4.55, N 4.6, K 4.02
A14: I 4.28, P 4.97, D 4.49, R 4.52, K 4.61, L 4.33, H 4.34, V 4.58
R20: V 4.65, N 4.75, A 4.25, C 4.45
L1: D 5.28, M 4.75, A 5.29, W 4.58, F 4.4, V 4.98, N 4.89
R4: T 4.67, F 3.75, A 4.39, W 3.11, N 4.63, L 4.59, C 4.34
R12: Y 4.51, E 4.29, N 4.11, P 4.6
R21: V 4.67, A 5.06, K 4.44, F 4.58, L 4.36
R24: C 4.44, W 3.84, D 5.02, F 4.3, S 4.85, A 4.72, V 4.42, M 4.28, T 4.6
E13: T 4.83, W 4.51, M 3.72
R7: S 4.66, N 4.83, E 4.93, Y 4.64, V 4.6, D 4.88, F 4.28, L 4.76, A 4.18, K 5.11, G 4.71, H 4.73
L22: D 5.31, E 5.15, Q 4.87, T 4.74, A 4.74, F 3.87, W 4.62, N 4.62, I 4.7, K 4.71, H 4.23
G23: C 4.57, N 4.64, S 5.18, P 4.77, V 4.45, E 4.68, F 4.44, M 4.17
R3: W 4.4, A 5.01, H 4.3, V 4.35, S 4.91, Q 4.99, N 4.69, P 5.54
A2: K 4.42, V 3.51, Y 4.32, D 4.41, F 3.4, R 5.33, N 4.9, P 4.84, G 4.78
R8: Y 4.15, W 4.48, H 4.75
Q9: Y 4.33, E 4.38, M 3.79, L 4.66, K 4.33, F 4.27, P 4.85

— the supplement of paper PMC10567573
